The results in this text go back to paper PMC8689207.

This assay deals with far-red light-acclimated photosystem I (FRL-PSI) complex of Synechococcus sp. PCC 7335, trimeric (Synechococcus sp. PCC 7335 (endogenous in Synechococcus 7335 cells)). The assay is described as follows: cryo-EM structure; trimeric FRL-PSI isolated whole from FRL-grown Synechococcus 7335 cells (1% β-DM, two sucrose gradients, PIB: 50 mM MES pH 6.5, 15 mM CaCl2, 10 mM MgCl2); Fd not added; ~3 mg Chl/ml, plunge-frozen at 4 °C; C3 symmetry, 2.91 Å.

With “far-red light-acclimated photosystem I (FRL-PSI) complex of Synechococcus sp. PCC 7335, trimeric”, the stoichiometry N is 3. “ferredoxin PetF1 (soluble [2Fe-2S] ferredoxin) of Synechococcus sp. PCC 7335 (natural protein)” gave an occupancy of 10%.
